Series [1] deals with Sul12a (Sulfolobus acidocaldarius). Briefly: EMSA. The note with it: KDapp, salmon sperm DNA 25 ug/mL, 20 mM Tris-HCl pH 8.0, 1 mM MgCl2, 0.1 mM DTT, 12.5% glycerol, 50 mM NaCl, 0.4 mM EDTA, 37 C 20 min, 0.1 nM 32P-DNA with 25 ug/mL salmon sperm DNA ….
Series [2] concerns the molecule itself. As to the kind of experiment: SDS-PAGE with western blot; 100 and 250 ug purified Sul12a separated by SDS-PAGE (4-12%), blotted on PVDF, probed with HRP-conjugated anti-polyHistidine antibodies.

The text below walks through data of publication PMC9025068, “DNA-Binding Properties of a Novel Crenarchaeal Chromatin-Organizing Protein in Sulfolobus acidocaldarius” (Biomolecules, 2022).

With argO promoter region (F3), the Kd in series [1] (F1 + F3 mixture) is 3.7 µM.

On to carAB promoter region (F2), for which the Kd in series [1] (F1 + F2 mixture) was determined as 1.2 µM.

B1: Sul12a (natural protein, Sulfolobus acidocaldarius, UniProt Q4JA12 1-107, looked up)
chain: MELTPRLQDIISILKEKGGSVNIRDLALQLKISPKTAKGYARELYRLGYIEMDENENMILKRENPENITDLKKTVETHTAEIEALKKEVEFLKEELSRFRGTKKVKV
notes: Sul12a of Sulfolobus acidocaldarius, encoded by the 324-bp gene Saci_1012; 107 amino acids, native MW 12.4 kDa (recombinant His-tagged monomer 14.3 kDa); the Saci_1012 coding region was amplified from genomic DNA and cloned in pET-45b(+); The preparation also held lower-MW species without tag (contaminants or degradation products); also called Saci_1012; not shown: His tag, N-terminal, kept
B1: the “stoichiometry N” value in series [2] came out at 2.
